# Data from patent US20060193821, “Aptamers to the human IL-12 cytokine family and their use as autoimmune disease therapeutics” (published 2006).
# B1: AMX84-B10 (ssRNA)
# RNA: GGGAAAAGCGAAUCAUACACAAGAAGUGCUUCAUGCGGCAAACUGCAUGACGUCGAAUAGAUAUGCUCCGCCAGAGACCAACCGAGAA
# modifications: 2'-F C and U, 2'-OH A and G
# B2: AMX84-A10 (ssRNA)
# RNA: GGGAAAAGCGAAUCAUACACAAGAAGUUUUUUGUGCUCUGAGUACUCAGCGUCCGUAAGGGAUAUGCUCCGCCAGAGACCAACCGAGAA
# modifications: 2'-F C and U, 2'-OH A and G
# B3: AMX84-H12 family clone AMX91-H12 (ssRNA)
# RNA: GGGAAAAGCGAAUCAUACACAAGACGUGUGCUUUAUGUAAACCAUAACGUUCCAUAAGGAAUAUGCUCCGCCAGAGACCAACCGAGAA
# modifications: 2'-F C and U, 2'-OH A and G
# Experiments:
# Details in all cases: tags: R&D Systems
# [1] = target: T1, IL-23 (human, p19/p40 heterodimer) (Homo sapiens, UniProt Q9NPF7;P29460 SEQ:20-189,SEQ:23-328); assay: cell_activity; TransAM STAT3, PHA blasts; Table 35 gives 700 nM for full length
# T1 sequence (Q9NPF7 20-189, chain 1 of 2): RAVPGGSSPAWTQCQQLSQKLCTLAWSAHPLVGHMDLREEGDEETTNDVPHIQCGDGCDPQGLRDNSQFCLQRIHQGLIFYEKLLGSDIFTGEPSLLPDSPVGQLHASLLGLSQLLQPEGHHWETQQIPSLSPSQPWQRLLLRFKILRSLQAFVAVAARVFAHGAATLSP
# T1 sequence (P29460 23-328, chain 2 of 2): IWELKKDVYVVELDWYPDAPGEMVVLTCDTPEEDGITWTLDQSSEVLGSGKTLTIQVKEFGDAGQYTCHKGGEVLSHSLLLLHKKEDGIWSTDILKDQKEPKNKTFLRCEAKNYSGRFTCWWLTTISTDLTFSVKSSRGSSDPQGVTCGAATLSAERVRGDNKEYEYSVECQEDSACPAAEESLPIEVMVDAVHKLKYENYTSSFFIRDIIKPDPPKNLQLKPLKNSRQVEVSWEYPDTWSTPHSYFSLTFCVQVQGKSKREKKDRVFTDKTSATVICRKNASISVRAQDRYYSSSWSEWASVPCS
# Description: (§1) In summary, the cell-based assay was conducted by isolating the peripheral blood mononuclear cells (PBMCs) from whole blood using a Histopaque gradient (Sigma, St. Louis, Mo.). The PBMCs were cultured for 3 to 5 days at 37° C./5% CO₂ in Peripheral Blood Medium (Sigma) which contains PHA, supplemented with IL-2 (100 units/mL) (R&D Systems, Minneapolis, Minn.), to generate PHA Blasts. To test IL-23 aptamers, the PHA Blasts were washed twice with 1×PBS, then serum starved for four hours in RPMI, 0.20% FBS. After serum starvation, approximately 2 million cells were aliquotted into appropriately labeled eppendorf tubes. hIL-23 at a final constant concentration of 3 ng/mL (R&D Systems, Minneapolis, Minn.) was combined with a dilution series of various IL-23 aptamers as described in Example 1, and the cytokine/aptamer mixture was added to the aliquotted cells in a final volume of 100 μl and incubated at 37° C. for 10-12 minutes. The incubation reaction was stopped by adding 1 mL of ice-cold PBS with 1.5 mM Na₃VO₄. Cell lysates were made using the lysis buffer provided by the TransAM™ STAT 3 assay following the manufacturer's instructions. FIG. 20 depicts a flow summary of the protocol used for the cell based assay.
# (§2) Full length clones from the rRfY selection described in Example 1A, and select minimized rRfY clones that were described in Example 2A. […]
# [2] = target: T1, IL-23 (human, p19/p40 heterodimer); assay: cell_activity; TransAM STAT3, PHA blasts; Table 35 gives 1 uM for full length
# Description: as §1, §2
# [3] = target: T1, IL-23 (human, p19/p40 heterodimer); assay: cell_activity; TransAM STAT3, PHA blasts, 3 ng/mL hIL-23
# Description: as §1, §2
binder,measurement,setting,value
B1,IC50,[1],> 1000 nM
B2,IC50,[2],400 nM
B3,IC50,[3],350 nM
